Laboratory results reported in article PMC12775124, “CUL4A-DDB1-DCAF10 is an N-recognin for N-terminally acetylated Src kinases” (Nature Communications, 2026).
Entries after “also recorded” stand apart in the source; their conditions may differ.

Tested on: DLD-1 Flp-In T-REx and Lyn KO cells
Assay: Level of Lyn / Lyn-GFP variants after NMT1/2 and DCAF10 siRNA, Western blot
Type: cell-based, human
Settings: DLD-1, 72 h siRNA
Text: To further investigate the role of the Nt-amino acid and its modification in DCAF10 recognition and DCAF10-dependent ubiquitination, we used the CRISPR/Cas9 technique to knock out Lyn in DLD-1 cell lines with T-REx Flp-In background (DLD-1 Lyn KO Flp-In T-REx) (Supplementary Fig. 7a–c). We then integrated Lyn^WT-GFP and two Nt-mutants (Lyn^G2A-GFP and Lyn^G2P-GFP) under a doxycycline-inducible promoter into the Flp-In cassette. Alanine (G2A) is expected to be efficiently acetylated by NatA, generating an Nt-acetylated Lyn mutant. Conversely, the proline (G2P) mutant, is expected not to be acetylated and may retain a free N-terminus[3],[36],[37]. Doxycycline-induced expression of Lyn^WT-GFP, Lyn^G2A-GFP, and Lyn^G2P-GFP was confirmed by Western blot, MS, and fluorescence microscopy (Supplementary Figs. 7d, e; 8a and Supplementary Data 6). […]
Fig. 6 N-terminal glycine mutation abolishes DCAF10-dependent stability and ubiquitination. a DLD-1 Flp-In T-REx cells and Lyn KO cells expressing Lyn^WT-GFP, Lyn^G2A-GFP, or Lyn^G2P-GFP were induced for 24 h with 100 ng/mL doxycycline. […] Filled circles represent siRNA treatment, empty circles untreated. b WB quantifications of Lyn levels normalized to vinculin. […] Lysates have been treated with NMT1/2 RNAi for 72 h. i Quantification of in vitro ubiquitination assays. […]

| Molecule | Dependency on NMT1/2 and DCAF10 (in words) |
| --- | --- |
| Lyn^G2A-GFP: Nt-mutant (G2A) Lyn-GFP (protein, UniProt P07948 2-512, looked up, variant G2A, GFP fusion) Tyrosine-protein kinase Lyn: ACIKSKGKDSLSDDGVDLKTQPVRNTERTIYVRDPTSNKQQRPVPESQLLPGQRFQTKDPEEQGDIVVALYPYDGIHPDDLSFKKGEKMKVLEEHGEWWKAKSLLTKKEGFIPSNYVAKLNTLETEEWFFKDITRKDAERQLLAPGNSAGAFLIRESETLKGSFSLSVRDFDPVHGDVIKHYKIRSLDNGGYYISPRITFPCISDMIKHYQKQADGLCRRLEKACISPKPQKPWDKDAWEIPRESIKLVKRLGAGQFGEVWMGYYNNSTKVAVKTLKPGTMSVQAFLEEANLMKTLQHDKLVRLYAVVTREEPIYIITEYMAKGSLLDFLKSDEGGKVLLPKLIDFSAQIAEGMAYIERKNYIHRDLRAANVLVSESLMCKIADFGLARVIEDNEYTAREGAKFPIKWTAPEAINFGCFTIKSDVWSFGILLYEIVTYGKIPYPGRTNADVMTALSQGYRMPRVENCPDELYDIMKMCWKEKAEERPTFDYLQSVLDDFYTATEGQYQQQP | did not show such dependency; also recorded: slight increase after DCAF10 depletion, independently of NMT1/2 |
| Lyn^G2P-GFP: Nt-mutant (G2P) Lyn-GFP (protein, UniProt P07948 2-512, looked up, variant G2P, C-terminal GFP fusion) Tyrosine-protein kinase Lyn: PCIKSKGKDSLSDDGVDLKTQPVRNTERTIYVRDPTSNKQQRPVPESQLLPGQRFQTKDPEEQGDIVVALYPYDGIHPDDLSFKKGEKMKVLEEHGEWWKAKSLLTKKEGFIPSNYVAKLNTLETEEWFFKDITRKDAERQLLAPGNSAGAFLIRESETLKGSFSLSVRDFDPVHGDVIKHYKIRSLDNGGYYISPRITFPCISDMIKHYQKQADGLCRRLEKACISPKPQKPWDKDAWEIPRESIKLVKRLGAGQFGEVWMGYYNNSTKVAVKTLKPGTMSVQAFLEEANLMKTLQHDKLVRLYAVVTREEPIYIITEYMAKGSLLDFLKSDEGGKVLLPKLIDFSAQIAEGMAYIERKNYIHRDLRAANVLVSESLMCKIADFGLARVIEDNEYTAREGAKFPIKWTAPEAINFGCFTIKSDVWSFGILLYEIVTYGKIPYPGRTNADVMTALSQGYRMPRVENCPDELYDIMKMCWKEKAEERPTFDYLQSVLDDFYTATEGQYQQQP | did not show such dependency |
